From US20210246166A1 (Bayer, published 2021)
Bridge positions count the residues as written; N and C are the ends. Square brackets hold non-standard residues; d marks the D form. Primed or numbered codes have the meaning given here. Ends that are not written are not given here. * marks the point of attachment. Tranexamic″ = tranexamic acid, NC[C@H]1CC[C@@H](C(=O)*)CC1; Pro(trans-4-F) = O=C(O)[C@@H]1C[C@@H](F)CN1; Oic = O=C(O)[C@@H]1C[C@@H]2CCCC[C@@H]2N1; Cyclobutylacetic = O=C(CC1CCC1)*; tBuAla = CC(C)(C)C[C@H](N)C(=O)O; Chg = N[C@H](C(=O)O)C1CCCCC1; Pen = CC(C)(S)[C@H](N)C(=O)O; αMeP = C[C@@]1(C(=O)O)CCCN1; NMeC = CN[C@@H](CS)C(=O)O; NPhGly = O=C(O)CNc1ccccc1; NMeA = CN[C@@H](C)C(=O)O; Aib = CC(C)(N)C(=O)O; Sar = CNCC(=O)O

T1: Recombinant human MASP1 enzyme (fragment corresponding to amino acids 297-699, C-terminal His Tag) (human, UniProt P48740 297-699)
T1 sequence: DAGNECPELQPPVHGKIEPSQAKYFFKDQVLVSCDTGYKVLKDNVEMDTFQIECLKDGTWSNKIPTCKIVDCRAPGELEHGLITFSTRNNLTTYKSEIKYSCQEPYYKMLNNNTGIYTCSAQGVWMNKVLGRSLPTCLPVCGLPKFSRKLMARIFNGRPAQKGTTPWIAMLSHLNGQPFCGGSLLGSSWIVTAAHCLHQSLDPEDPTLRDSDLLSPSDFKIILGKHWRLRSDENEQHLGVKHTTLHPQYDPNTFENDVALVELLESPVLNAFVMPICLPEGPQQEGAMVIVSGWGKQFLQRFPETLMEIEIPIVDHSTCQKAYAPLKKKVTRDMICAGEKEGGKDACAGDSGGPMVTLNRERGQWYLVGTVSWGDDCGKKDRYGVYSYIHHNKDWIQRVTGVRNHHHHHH

B1: ((N-Me)A)-IC+SRSLPPIC+IPD-NH2 (peptide)
peptide: [NMeA]ICSRSLPPICIPD-NH2
modifications: disulfide 3-11; N-terminus assumed
SMILES: CC[C@H](C)[C@H](NC(=O)[C@H](C)NC)C(=O)N[C@H]1CSSC[C@@H](C(=O)N[C@H](C(=O)N2CCC[C@H]2C(=O)N[C@@H](CC(=O)O)C(N)=O)[C@@H](C)CC)NC(=O)[C@H]([C@@H](C)CC)NC(=O)[C@@H]2CCCN2C(=O)[C@@H]2CCCN2C(=O)[C@H](CC(C)C)NC(=O)[C@H](CO)NC(=O)[C@H](CCCNC(=N)N)NC(=O)[C@H](CO)NC1=O
B2: (Tranexamic)-IC+SRS-((tBu)A)-PPI-((N-Me)C)+I-NH2 (peptide)
peptide: {Tranexamic″}-ICSRS[tBuAla]PPI[NMeC]I-NH2
modifications: disulfide 2-10
SMILES: CC[C@H](C)[C@H](NC(=O)[C@@H]1CSSC[C@H](NC(=O)[C@@H](NC(=O)[C@H]2CC[C@@H](CN)CC2)[C@@H](C)CC)C(=O)N[C@@H](CO)C(=O)N[C@@H](CCCNC(=N)N)C(=O)N[C@@H](CO)C(=O)N[C@@H](CC(C)(C)C)C(=O)N2CCC[C@H]2C(=O)N2CCC[C@H]2C(=O)N[C@@H]([C@@H](C)CC)C(=O)N1C)C(N)=O
B3: FIC+SRSLP-(Oic)-I-(Pen)+IP-NH2 (peptide)
peptide: FICSRSLP[Oic]I[Pen]IP-NH2
modifications: disulfide 3-11; N-terminus assumed
SMILES: CC[C@H](C)[C@H](NC(=O)[C@@H](N)Cc1ccccc1)C(=O)N[C@H]1CSSC(C)(C)[C@@H](C(=O)N[C@H](C(=O)N2CCC[C@H]2C(N)=O)[C@@H](C)CC)NC(=O)[C@H]([C@@H](C)CC)NC(=O)[C@@H]2C[C@@H]3CCCC[C@@H]3N2C(=O)[C@@H]2CCCN2C(=O)[C@H](CC(C)C)NC(=O)[C@H](CO)NC(=O)[C@H](CCCNC(=N)N)NC(=O)[C@H](CO)NC1=O
B4: ((N-Me)G)-IC+TRSLPPIC+IPD-OH (peptide)
peptide: [Sar]ICTRSLPPICIPD-OH
modifications: disulfide 3-11; N-terminus assumed
SMILES: CC[C@H](C)[C@H](NC(=O)CNC)C(=O)N[C@H]1CSSC[C@@H](C(=O)N[C@H](C(=O)N2CCC[C@H]2C(=O)N[C@@H](CC(=O)O)C(=O)O)[C@@H](C)CC)NC(=O)[C@H]([C@@H](C)CC)NC(=O)[C@@H]2CCCN2C(=O)[C@@H]2CCCN2C(=O)[C@H](CC(C)C)NC(=O)[C@H](CO)NC(=O)[C@H](CCCNC(=N)N)NC(=O)[C@H]([C@@H](C)O)NC1=O
B5: (Cyclobutylacetic)-IC+SRS-((tBu)A)-PPI-(Pen)+IP-NH2 (peptide)
peptide: Cyclobutylacetic-ICSRS[tBuAla]PPI[Pen]IP-NH2
modifications: disulfide 2-10
SMILES: CC[C@H](C)[C@H](NC(=O)CC1CCC1)C(=O)N[C@H]1CSSC(C)(C)[C@@H](C(=O)N[C@H](C(=O)N2CCC[C@H]2C(N)=O)[C@@H](C)CC)NC(=O)[C@H]([C@@H](C)CC)NC(=O)[C@@H]2CCCN2C(=O)[C@@H]2CCCN2C(=O)[C@H](CC(C)(C)C)NC(=O)[C@H](CO)NC(=O)[C@H](CCCNC(=N)N)NC(=O)[C@H](CO)NC1=O
B6: GIC+SRSLPPIC+I-(Aib)-D-OH (peptide)
peptide: GICSRSLPPICI[Aib]D-OH
modifications: disulfide 3-11; N-terminus assumed
SMILES: CC[C@H](C)[C@H](NC(=O)CN)C(=O)N[C@H]1CSSC[C@@H](C(=O)N[C@H](C(=O)NC(C)(C)C(=O)N[C@@H](CC(=O)O)C(=O)O)[C@@H](C)CC)NC(=O)[C@H]([C@@H](C)CC)NC(=O)[C@@H]2CCCN2C(=O)[C@@H]2CCCN2C(=O)[C@H](CC(C)C)NC(=O)[C@H](CO)NC(=O)[C@H](CCCNC(=N)N)NC(=O)[C@H](CO)NC1=O
B7: ((N-Me)G)-IC+SRSLPPIC+I-((trans-4-Fluoro)P)-D-OH (peptide)
peptide: [Sar]ICSRSLPPICI[Pro(trans-4-F)]D-OH
modifications: disulfide 3-11; N-terminus assumed
SMILES: CC[C@H](C)[C@H](NC(=O)CNC)C(=O)N[C@H]1CSSC[C@@H](C(=O)N[C@H](C(=O)N2C[C@H](F)C[C@H]2C(=O)N[C@@H](CC(=O)O)C(=O)O)[C@@H](C)CC)NC(=O)[C@H]([C@@H](C)CC)NC(=O)[C@@H]2CCCN2C(=O)[C@@H]2CCCN2C(=O)[C@H](CC(C)C)NC(=O)[C@H](CO)NC(=O)[C@H](CCCNC(=N)N)NC(=O)[C@H](CO)NC1=O
B8: ((N-Me)G)-IC+SRSLPPIC+IPD-OH (peptide)
peptide: [Sar]ICSRSLPPICIPD-OH
modifications: disulfide 3-11; N-terminus assumed
SMILES: CC[C@H](C)[C@H](NC(=O)CNC)C(=O)N[C@H]1CSSC[C@@H](C(=O)N[C@H](C(=O)N2CCC[C@H]2C(=O)N[C@@H](CC(=O)O)C(=O)O)[C@@H](C)CC)NC(=O)[C@H]([C@@H](C)CC)NC(=O)[C@@H]2CCCN2C(=O)[C@@H]2CCCN2C(=O)[C@H](CC(C)C)NC(=O)[C@H](CO)NC(=O)[C@H](CCCNC(=N)N)NC(=O)[C@H](CO)NC1=O
B9: ((N-Me)G)-IC+SRSLPP-IC+I-((2-Me)P)-D-OH (peptide)
peptide: [Sar]ICSRSLPPICI[αMeP]D-OH
modifications: disulfide 3-11; N-terminus assumed
SMILES: CC[C@H](C)[C@H](NC(=O)CNC)C(=O)N[C@H]1CSSC[C@@H](C(=O)N[C@H](C(=O)N2CCC[C@@]2(C)C(=O)N[C@@H](CC(=O)O)C(=O)O)[C@@H](C)CC)NC(=O)[C@H]([C@@H](C)CC)NC(=O)[C@@H]2CCCN2C(=O)[C@@H]2CCCN2C(=O)[C@H](CC(C)C)NC(=O)[C@H](CO)NC(=O)[C@H](CCCNC(=N)N)NC(=O)[C@H](CO)NC1=O
B10: Ac-IC+SRS-((tBu)A)-PPI-((N-Me)C)+I-NH2 (peptide)
peptide: Ac-ICSRS[tBuAla]PPI[NMeC]I-NH2
modifications: disulfide 2-10
SMILES: CC[C@H](C)[C@H](NC(=O)[C@@H]1CSSC[C@H](NC(=O)[C@@H](NC(C)=O)[C@@H](C)CC)C(=O)N[C@@H](CO)C(=O)N[C@@H](CCCNC(=N)N)C(=O)N[C@@H](CO)C(=O)N[C@@H](CC(C)(C)C)C(=O)N2CCC[C@H]2C(=O)N2CCC[C@H]2C(=O)N[C@@H]([C@@H](C)CC)C(=O)N1C)C(N)=O
B11: AIC+SRSLP-(Oic)-IC+I-OH (peptide)
peptide: AICSRSLP[Oic]ICI-OH
modifications: disulfide 3-11; N-terminus assumed
SMILES: CC[C@H](C)[C@H](NC(=O)[C@@H]1CSSC[C@H](NC(=O)[C@@H](NC(=O)[C@H](C)N)[C@@H](C)CC)C(=O)N[C@@H](CO)C(=O)N[C@@H](CCCNC(=N)N)C(=O)N[C@@H](CO)C(=O)N[C@@H](CC(C)C)C(=O)N2CCC[C@H]2C(=O)N2[C@@H](C[C@@H]3CCCC[C@@H]32)C(=O)N[C@@H]([C@@H](C)CC)C(=O)N1)C(=O)O
B12: ((N-Ph)G)-IC+SRS-((tBu)A)-PPI-((N-Me)C)+I-NH2 (peptide)
peptide: [NPhGly]ICSRS[tBuAla]PPI[NMeC]I-NH2
modifications: disulfide 3-11; N-terminus assumed
SMILES: CC[C@H](C)[C@H](NC(=O)[C@@H]1CSSC[C@H](NC(=O)[C@@H](NC(=O)CNc2ccccc2)[C@@H](C)CC)C(=O)N[C@@H](CO)C(=O)N[C@@H](CCCNC(=N)N)C(=O)N[C@@H](CO)C(=O)N[C@@H](CC(C)(C)C)C(=O)N2CCC[C@H]2C(=O)N2CCC[C@H]2C(=O)N[C@@H]([C@@H](C)CC)C(=O)N1C)C(N)=O
B13: IC+SRSLP-(Oic)-I-(Pen)+IPD-NH2 (peptide)
peptide: ICSRSLP[Oic]I[Pen]IPD-NH2
modifications: disulfide 2-10; N-terminus assumed
SMILES: CC[C@H](C)[C@H](N)C(=O)N[C@H]1CSSC(C)(C)[C@@H](C(=O)N[C@H](C(=O)N2CCC[C@H]2C(=O)N[C@@H](CC(=O)O)C(N)=O)[C@@H](C)CC)NC(=O)[C@H]([C@@H](C)CC)NC(=O)[C@@H]2C[C@@H]3CCCC[C@@H]3N2C(=O)[C@@H]2CCCN2C(=O)[C@H](CC(C)C)NC(=O)[C@H](CO)NC(=O)[C@H](CCCNC(=N)N)NC(=O)[C@H](CO)NC1=O
B14: ((N-Me)G)-IC+SRSLPP-(Chg)-C+IPD-NH2 (peptide)
peptide: [Sar]ICSRSLPP[Chg]CIPD-NH2
modifications: disulfide 3-11; N-terminus assumed
SMILES: CC[C@H](C)[C@H](NC(=O)CNC)C(=O)N[C@H]1CSSC[C@@H](C(=O)N[C@H](C(=O)N2CCC[C@H]2C(=O)N[C@@H](CC(=O)O)C(N)=O)[C@@H](C)CC)NC(=O)[C@H](C2CCCCC2)NC(=O)[C@@H]2CCCN2C(=O)[C@@H]2CCCN2C(=O)[C@H](CC(C)C)NC(=O)[C@H](CO)NC(=O)[C@H](CCCNC(=N)N)NC(=O)[C@H](CO)NC1=O

These binders were tested against T1, Recombinant human MASP1 enzyme … (assay: cell-based or functional assay).

| Binder | human MASP1 IC50 [nM] |
| --- | --- |
| B1 | 18 |
| B2 | 15 |
| B3 | 16 |
| B4 | 16 |
| B5 | 15 |
| B6 | 16 |
| B7 | 16 |
| B8 | 15 |
| B9 | 16 |
| B10 | 14 |
| AICSRS[3‑(Trimethylsilyl)‑L‑alanine]P[Oic]I[NMeC]IPD-NH2 (disulfide 3-11) [AIC+SRS-(3-(Trimethylsilyl)-L-alanine)-P-(Oic)-I-((N-Me)C)+IPD-NH2] | 14 |
| B11 | 16 |
| B12 | 18 |
| B13 | 17 |
| {Tetrahydro‑2H‑pyran‑3‑ylacetic acid}-ICSRSLP[Oic]I[Pen]IP-NH2 (disulfide 2-10) [(Tetrahydro-2H-pyran-3-ylacetic acid)-IC+SRSLP-(Oic)-I-(Pen)+IP-NH2] | 17 |
| B14 | 15 |

These binders were tested against Recombinant human MASP2 enzyme (fragment corresponding to amino acids 297-686, C-terminal His Tag) (human, UniProt O00187 297-686) (assay: cell-based or functional assay).
Sequence of Recombinant human MASP2 enzyme (fragment corresponding to amino acids 297-686, C-terminal His Tag) (O00187 other isoform, or with tags, fused parts or gaps limits assumed): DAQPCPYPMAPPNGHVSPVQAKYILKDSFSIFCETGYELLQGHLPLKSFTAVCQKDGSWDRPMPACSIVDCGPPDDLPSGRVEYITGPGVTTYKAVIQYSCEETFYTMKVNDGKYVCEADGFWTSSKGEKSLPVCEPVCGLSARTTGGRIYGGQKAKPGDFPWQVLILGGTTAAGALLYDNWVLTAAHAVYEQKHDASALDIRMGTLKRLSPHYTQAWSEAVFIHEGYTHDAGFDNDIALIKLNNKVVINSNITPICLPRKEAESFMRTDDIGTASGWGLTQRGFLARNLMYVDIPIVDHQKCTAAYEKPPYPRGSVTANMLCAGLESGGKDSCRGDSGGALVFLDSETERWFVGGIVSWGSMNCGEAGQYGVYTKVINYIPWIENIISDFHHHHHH

| Binder | human MASP2 IC50 [nM] |
| --- | --- |
| B1 | 500 |
| B2 | 26 |
| B3 | 81 |
| B4 | 6500 |
| B5 | 9.3 |
| B6 | 160 |
| B7 | 490 |
| B8 | 535 |
| B9 | 160 |
| B10 | 61 |
| AICSRS[3‑(Trimethylsilyl)‑L‑alanine]P[Oic]I[NMeC]IPD-NH2 (disulfide 3-11) [AIC+SRS-(3-(Trimethylsilyl)-L-alanine)-P-(Oic)-I-((N-Me)C)+IPD-NH2] | 1100 |
| B11 | 930 |
| B12 | 42 |
| B13 | 603 |
| {Tetrahydro‑2H‑pyran‑3‑ylacetic acid}-ICSRSLP[Oic]I[Pen]IP-NH2 (disulfide 2-10) [(Tetrahydro-2H-pyran-3-ylacetic acid)-IC+SRSLP-(Oic)-I-(Pen)+IP-NH2] | 12 |
| B14 | 891 |
